Test results reported in patent publication EP1847600A1, “Specific protease for inactivation of human tumour necrosis factor-alpha” (Direvo Biotech AG, priority 2006, dated 2007).

Key:
synthetic peptide = assay: Activity assay of pegylated versus non-pegylated protease against a synthetic peptide (Fig. 4A); format: biochemical; conditions: 20 kDa PEG; synthetic peptide / recombinant hTNFα
Description: (§1) • Figure 1: Mass spectrometric verification of the proteolytic cleavage site of TNF-alpha. TNF-alpha was digested at a concentration of 1 mg/ml with protease variant E for 1 h at 37 °C in PBS buffer. The short fragment of the cleavage reaction was isolated on a C18-reversed phase HPLC-column and the collected fraction electrosprayed into the orifice of the ion-trap mass spectrometer. • Figure 2: Deconvoluted mass spectrometric analysis. The small cleavage product has been isolated and the determined mass represents the first 32 amino acids of SEQ ID NO: 11, confirming the targeted cleavage site. • Figure 3: Inactivation of recombinant human TNF-alpha activity by a panel of variants in a cell-based caspase assay. […] Detection of hTNFα-induced caspase activation was measured by a luminescence based read-out. […] (A) depicts maximal detected inactivation of hTNFα; (B) depicts dose dependency of the effects of the hTNFα specific protease. • Figure 4: Effect of pegylation on activity. […] The activity of the resulting pegylated protease was assessed against a recombinant hTNFα (A) or by a caspase assay that measures levels of remaining TNF-alpha activity following digestion of the cytokine by the protease (B). […] Cleavage is assessed by following the changes in the fluorescent signal. […] Efficacy was determined by using a standard clinical scoring system for ankle joint inflammation. […]

hTNFα = hTNFα (Homo sapiens, UniProt P01375); assay: TNF-alpha dependent cell-based caspase assay (Caspase-Glo 3/7) on WEHI 13VAR cells; set-up: species or system mouse; conditions: 20 kDa PEG, protease 50 and 100 µg/ml, hTNFα 1 ng/ml, 4 h, 37 °C
Description: as §1

[1] = test system: human TNF-alpha transgenic mouse model of arthritis; assay: Efficacy in human TNF-alpha transgenic mouse model of arthritis (Tg197); format: in vivo; conditions: Tg197 mice, six weeks old, established disease; 50 mg/kg intraperitoneally three times per week for five weeks
Description: as §1

transmembrane TNF-alpha = molecular target: T1, transmembrane TNF-alpha (Homo sapiens, UniProt P01375, DEL77-88); assay: Membrane-bound TNF-alpha assay: cell line expressing non-cleavable TNF plus reporter cells, apoptosis read-out; format: cell-based; conditions: incubation at different concentrations for 4 h, then reporter cell line added
T1 construct: The transmembrane TNF induces apoptosis in these TNF-susceptible cells; expressed in transfected cells
T1 sequence (P01375 with tags, fused parts or gaps DEL77-88): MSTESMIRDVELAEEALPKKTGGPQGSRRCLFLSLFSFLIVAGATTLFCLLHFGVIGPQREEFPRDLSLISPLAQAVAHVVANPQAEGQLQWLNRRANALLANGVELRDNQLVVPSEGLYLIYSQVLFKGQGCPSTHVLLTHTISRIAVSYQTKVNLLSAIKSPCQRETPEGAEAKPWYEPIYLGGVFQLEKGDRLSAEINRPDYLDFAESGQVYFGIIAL

Chain of hTNFα (P01375 77-233 limits assumed): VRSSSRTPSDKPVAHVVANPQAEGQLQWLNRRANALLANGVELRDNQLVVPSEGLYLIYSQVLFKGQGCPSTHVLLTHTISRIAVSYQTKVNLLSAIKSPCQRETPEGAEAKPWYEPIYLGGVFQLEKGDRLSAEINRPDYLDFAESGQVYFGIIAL

Row | Molecule | activity of pegylated protease compared with non-pegylated variant (Fig. 4A) (synthetic peptide) | remaining TNF-alpha activity after digestion, pegylated compared with non-pegylated variant (Fig. 4B) (hTNFα) | clinical score for ankle joint inflammation (arthritis score 0 to 3) [1] | inactivation of transmembrane TNF-alpha (inhibition of apoptosis of reporter cells) (transmembrane TNF-alpha)
1 | pegylated variant E: Variant E modified by chemical attachment of 20 kDa poly(ethyleneglycol) (conjugate) IVGGYDCEENSVPYHVSLNSGSNSTTICGGALINEQWVVTAGHCYAFFPADKSRIQVRLGVHSTGALEGNEQIINAAKIIRHPQYDWKTLNNDIMLIKLSSPAVINAHVSTISLPTAPPATGTKCLISGWGNSKDPYKPSSRADYPGEVQCLDAPVLSQTKCEASYPGKITSNMFCAGFLEGGKDSCQGDSGGPVVHNGQLQGVVSWGEGCAQKNKPGVYTNVYNYVEWIQDTIAANS | slight reduction in specific activity | slight reduction in specific activity | Efficacy of pegylated TNF-alpha specific protease variant E is demonstrated | 
2 | pegylated variant G: variant G pegylated with 20 kD methoxy-poly(ethyleneglycol) derivative on lysine residues (conjugate) IVGGYDCEENSVPYHVSLNSDSNSTTICGGALINEQWVVTAGHCYSFLPLDKSRIQVRLGVHSTGALEGNEQIINAAKIIRHPQYDWKTLNNDIMLIKLSSPAVINAHVSTISLPTAPPATGTKCLISGWGNSKDPYKPSSGPSTADYPGEVQCLDAPVLSQTKCEASYPGKITSNMFCAGFLEGGKDSCQGDSGGPVVHNGQLQGVVSWGEGCAQKNKPGVYTNVYNYVEWIQDTIAANS |  |  |  | do not inhibit apoptosis
